Laboratory results as given in patent US20090149389A1 (PURDUE RESEARCH FOUNDATION, published 2009).

Columns and labels:
EphA2 (h) = target: T1, EphA2 (h) (human (h), UniProt P29317 591-976, limits assumed); assay: cell-based or functional assay
T1 sequence (looked up): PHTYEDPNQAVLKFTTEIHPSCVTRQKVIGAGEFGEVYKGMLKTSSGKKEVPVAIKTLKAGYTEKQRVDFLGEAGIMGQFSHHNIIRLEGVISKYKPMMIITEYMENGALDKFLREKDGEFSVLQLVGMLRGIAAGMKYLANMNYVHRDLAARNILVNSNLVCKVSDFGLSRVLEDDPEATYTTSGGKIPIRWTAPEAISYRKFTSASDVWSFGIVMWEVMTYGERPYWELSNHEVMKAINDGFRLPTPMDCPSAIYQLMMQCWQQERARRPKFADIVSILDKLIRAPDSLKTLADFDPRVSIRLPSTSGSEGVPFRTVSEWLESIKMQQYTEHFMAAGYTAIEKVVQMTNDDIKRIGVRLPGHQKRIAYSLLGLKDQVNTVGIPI

MAPKI (h) = MAPKI (h) (human (h), UniProt P28482 1-360, limits assumed); assay: cell-based or functional assay
MAPKI (h), sequence (P28482 whole entry): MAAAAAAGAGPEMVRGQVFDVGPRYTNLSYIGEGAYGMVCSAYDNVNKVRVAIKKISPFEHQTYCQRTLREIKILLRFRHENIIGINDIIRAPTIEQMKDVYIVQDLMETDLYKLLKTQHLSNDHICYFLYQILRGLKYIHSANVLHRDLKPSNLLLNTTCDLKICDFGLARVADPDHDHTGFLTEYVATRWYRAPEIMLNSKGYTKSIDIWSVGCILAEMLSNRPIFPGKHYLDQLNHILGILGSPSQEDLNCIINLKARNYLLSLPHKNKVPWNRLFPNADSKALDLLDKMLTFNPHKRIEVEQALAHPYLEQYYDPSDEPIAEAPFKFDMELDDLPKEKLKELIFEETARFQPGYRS

Binder: FAKLAARLYRKALARQLGVAA
- Profile-1 @ = 100 µm (kinase profiler assay) (EphA2 (h)): 32
- Profile-1 @ = 100 µm (kinase profiler assay) (MAPKI (h)): 104
